± gives the uncertainty stated by the source.
B1: Serine/threonine-protein kinase A-Raf, residues 21 to 89; numbered along this chain, P10398 (parent)
chain: VKVYLPNKQRTVVTVRDGMSVYDSLDKALKVRGLNQDCCVVYRLIKGRKTVTAWDTAIAPLDGEELIVE

Variants of: B1
Assay: abundance fitness (aPCA) (normalised: wild type 0, dead -1); higher = more abundant; growth selection in yeast, the domain comes from the species named
Conditions: Homo sapiens
L29F gave an abundance fitness of -0.191 ± 0.13. Work on L29P yielded an abundance fitness of -0.958 ± 0.096. L29N gave an abundance fitness of -0.607 ± 0.25. Variant D62T has an abundance fitness of -0.111 ± 0.056. D62E showed an abundance fitness of -0.128 ± 0.073. For G18V, the abundance fitness was -0.663 ± 0.064. With G18E the abundance fitness was -0.25 ± 0.12. Variant G18K has an abundance fitness of -0.08 ± 0.08. In the case of T56R, the abundance fitness is reported as -0.276 ± 0.029. For T56L, the abundance fitness was -0.253 ± 0.031. Work on T56C yielded an abundance fitness of -0.09 ± 0.085. For K8Q, the abundance fitness was -0.031 ± 0.054. For K8G, the abundance fitness was 0.16 ± 0.033. Work on K8C yielded an abundance fitness of -0.243 ± 0.068. Variant K8E has an abundance fitness of 0 ± 0.043. In the case of M19F, the abundance fitness is reported as -0.274 ± 0.1. Variant M19A has an abundance fitness of -0.17 ± 0.062. Work on N7E yielded an abundance fitness of -0.17 ± 0.036. N7F gave an abundance fitness of -0.49 ± 0.055. N7P showed an abundance fitness of -0.861 ± 0.1. S24C gave an abundance fitness of 0.11 ± 0.093. In the case of S24F, the abundance fitness is reported as -0.349 ± 0.087. Variant S24M has an abundance fitness of -0.04 ± 0.075. Work on S24G yielded an abundance fitness of 0.149 ± 0.049. S24N gave an abundance fitness of -0.469 ± 0.23. For V13R, the abundance fitness was -0.78 ± 0.078. V13S showed an abundance fitness of -1 ± 0.17. V13Q showed an abundance fitness of -0.468 ± 0.11. Work on V13F yielded an abundance fitness of -0.795 ± 0.2. K30T showed an abundance fitness of -0.152 ± 0.095. With K30M the abundance fitness was -0.288 ± 0.097. In the case of D55I, the abundance fitness is reported as -0.452 ± 0.14. D55Q showed an abundance fitness of -0.024 ± 0.045. For D55N, the abundance fitness was -0.098 ± 0.06. For L34G, the abundance fitness was -1.1 ± 0.15. In the case of L34P, the abundance fitness is reported as -0.833 ± 0.15. L34A gave an abundance fitness of -1.02 ± 0.17. Work on L34V yielded an abundance fitness of -1 ± 0.15. V40G gave an abundance fitness of -0.857 ± 0.094. Work on V40A yielded an abundance fitness of -0.021 ± 0.055. With V40K the abundance fitness was -0.117 ± 0.13. In the case of V12T, the abundance fitness is reported as -0.096 ± 0.065. Variant V12M has an abundance fitness of -0.264 ± 0.047. V12K gave an abundance fitness of -0.111 ± 0.055. Variant V12Y has an abundance fitness of 0.019 ± 0.086. Variant Y4K has an abundance fitness of 0.069 ± 0.059. With Y4P the abundance fitness was -0.96 ± 0.23. For Y4V, the abundance fitness was 0.011 ± 0.047. With Y42W the abundance fitness was -0.366 ± 0.064. Variant Y42P has an abundance fitness of -0.926 ± 0.15. Work on Y42G yielded an abundance fitness of -0.824 ± 0.089. Work on Y42V yielded an abundance fitness of -0.864 ± 0.1. Work on L5S yielded an abundance fitness of -0.818 ± 0.1. Variant L5T has an abundance fitness of -0.916 ± 0.13. Variant L5M has an abundance fitness of -0.064 ± 0.058. With L5E the abundance fitness was -0.844 ± 0.21. In the case of V31Y, the abundance fitness is reported as -0.278 ± 0.15. In the case of Y22W, the abundance fitness is reported as -0.069 ± 0.051. In the case of Y22T, the abundance fitness is reported as -0.383 ± 0.13. Y22A showed an abundance fitness of 0.056 ± 0.058. For Y22H, the abundance fitness was 0.024 ± 0.2. In the case of A28Y, the abundance fitness is reported as -0.274 ± 0.14. Variant A28L has an abundance fitness of 0.029 ± 0.044. G63Q showed an abundance fitness of -0.466 ± 0.1. G63A gave an abundance fitness of -0.142 ± 0.086. With G63N the abundance fitness was -0.265 ± 0.31. In the case of V21C, the abundance fitness is reported as -0.707 ± 0.22. With V21W the abundance fitness was -0.602 ± 0.092. Work on V21E yielded an abundance fitness of -0.65 ± 0.16. In the case of V21T, the abundance fitness is reported as -0.964 ± 0.24. V21F showed an abundance fitness of -0.392 ± 0.12. Variant R10H has an abundance fitness of 0.041 ± 0.12. With R10S the abundance fitness was 0.177 ± 0.052. Work on R10F yielded an abundance fitness of 0.147 ± 0.11. C38I showed an abundance fitness of -0.074 ± 0.1. With C38F the abundance fitness was -0.136 ± 0.097. In the case of C38Q, the abundance fitness is reported as -0.037 ± 0.072. With V51G the abundance fitness was -0.662 ± 0.11. In the case of V51E, the abundance fitness is reported as -0.128 ± 0.064. V51A gave an abundance fitness of -0.102 ± 0.068. For V41S, the abundance fitness was -0.515 ± 0.17. With V41T the abundance fitness was -0.8 ± 0.28. V15W showed an abundance fitness of -0.093 ± 0.054. With V15I the abundance fitness was -0.088 ± 0.17. In the case of Q9P, the abundance fitness is reported as -0.876 ± 0.15. With A59M the abundance fitness was 0.078 ± 0.06. A59Q showed an abundance fitness of -0.008 ± 0.086. A53R showed an abundance fitness of -0.149 ± 0.056. In the case of A53Y, the abundance fitness is reported as -0.377 ± 0.15. In the case of A53S, the abundance fitness is reported as -0.058 ± 0.056. With A53E the abundance fitness was 0.08 ± 0.072. A53G gave an abundance fitness of -0.033 ± 0.057. Work on T14Q yielded an abundance fitness of 0.034 ± 0.065. In the case of T14Y, the abundance fitness is reported as -0.415 ± 0.37. T14P gave an abundance fitness of -0.005 ± 0.09. For D26P, the abundance fitness was -0.977 ± 0.22. Work on D26A yielded an abundance fitness of 0.069 ± 0.071. For D26G, the abundance fitness was -0.1 ± 0.047. Variant K2Y has an abundance fitness of -0.313 ± 0.19. K2L showed an abundance fitness of -0.349 ± 0.09. With K2V the abundance fitness was -0.118 ± 0.067. For L61M, the abundance fitness was 0.017 ± 0.087. For I67F, the abundance fitness was 0.252 ± 0.13. For V1R, the abundance fitness was -0.487 ± 0.48. D23F gave an abundance fitness of -0.056 ± 0.12. D23A gave an abundance fitness of -0.201 ± 0.05. With I58Q the abundance fitness was -0.952 ± 0.2. Work on I58V yielded an abundance fitness of -0.185 ± 0.049. With I58N the abundance fitness was -0.858 ± 0.45. With I58Y the abundance fitness was 0.146 ± 0.088. In the case of I58D, the abundance fitness is reported as -0.881 ± 0.34. I58S gave an abundance fitness of -0.278 ± 0.068. Variant W54E has an abundance fitness of -0.96 ± 0.13. With W54K the abundance fitness was -0.843 ± 0.13. R32H gave an abundance fitness of 0.1 ± 0.18. Variant R32S has an abundance fitness of -0.141 ± 0.058. With E64C the abundance fitness was -0.571 ± 0.21. Work on R48A yielded an abundance fitness of -0.128 ± 0.06. Work on R48G yielded an abundance fitness of -0.479 ± 0.056. Work on R48Q yielded an abundance fitness of -0.094 ± 0.095. In the case of T52R, the abundance fitness is reported as -0.529 ± 0.063. Work on T52A yielded an abundance fitness of -0.174 ± 0.062. For L44F, the abundance fitness was -0.197 ± 0.13. L44M showed an abundance fitness of 0.069 ± 0.072. In the case of N35F, the abundance fitness is reported as -0.449 ± 0.18. N35H gave an abundance fitness of -0.415 ± 0.37. G47W gave an abundance fitness of -0.888 ± 0.17. In the case of G47M, the abundance fitness is reported as -1.06 ± 0.2. Work on G47L yielded an abundance fitness of -0.873 ± 0.091. G47H showed an abundance fitness of -0.907 ± 0.21. With R16N the abundance fitness was -0.147 ± 0.097. Variant R16A has an abundance fitness of -0.027 ± 0.045. In the case of R16E, the abundance fitness is reported as -0.037 ± 0.062. With V3A the abundance fitness was -0.672 ± 0.086. Work on V3F yielded an abundance fitness of -0.552 ± 0.092. For I45A, the abundance fitness was -0.318 ± 0.079. C39P gave an abundance fitness of -0.805 ± 0.2. With C39I the abundance fitness was -0.766 ± 0.27. D17C gave an abundance fitness of -0.418 ± 0.1. For D17Q, the abundance fitness was 0 ± 0.06. T11I showed an abundance fitness of -0.072 ± 0.1. With R43G the abundance fitness was -0.907 ± 0.13. Variant R43P has an abundance fitness of -0.822 ± 0.33. Work on R43K yielded an abundance fitness of -0.205 ± 0.083. R43V showed an abundance fitness of -0.703 ± 0.096. Work on K46S yielded an abundance fitness of -0.08 ± 0.058. Work on K46N yielded an abundance fitness of 0.228 ± 0.17. Work on K46R yielded an abundance fitness of -0.024 ± 0.034. With K49V the abundance fitness was -0.934 ± 0.17. K49G showed an abundance fitness of -0.863 ± 0.097. Variant K49Q has an abundance fitness of -0.566 ± 0.13. In the case of K49C, the abundance fitness is reported as -0.672 ± 0.34. For Q36K, the abundance fitness was 0.046 ± 0.15. Q36M showed an abundance fitness of -0.18 ± 0.082. Q36V gave an abundance fitness of -0.028 ± 0.065. Variant E65S has an abundance fitness of -0.124 ± 0.092. For P60D, the abundance fitness was 0.138 ± 0.12. P60M gave an abundance fitness of 0.084 ± 0.068. P60A showed an abundance fitness of 0.147 ± 0.066. Variant P60R has an abundance fitness of -0.067 ± 0.048. Work on E69L yielded an abundance fitness of -0.889 ± 0.18. G33M showed an abundance fitness of -0.037 ± 0.091. In the case of G33A, the abundance fitness is reported as -0.546 ± 0.12. G33K showed an abundance fitness of -0.41 ± 0.16. D37P gave an abundance fitness of -0.662 ± 0.26. In the case of D37L, the abundance fitness is reported as -0.567 ± 0.089. D37C gave an abundance fitness of -0.273 ± 0.098.

Source: the Human Domainome abundance scans (Beltran et al. 2025)
